T1: FcγRIIb (human, UniProt P31994 43-217)
T1 construct: extracellular domain; also called 2b
T1 sequence: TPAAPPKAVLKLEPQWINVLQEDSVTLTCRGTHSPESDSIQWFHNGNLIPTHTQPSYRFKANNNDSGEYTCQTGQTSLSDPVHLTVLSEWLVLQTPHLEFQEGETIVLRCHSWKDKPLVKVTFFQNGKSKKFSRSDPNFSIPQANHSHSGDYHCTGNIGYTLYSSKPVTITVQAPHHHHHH

T2: FcγRIIa(H) (human, UniProt P12318 34-217)
T2 construct: extracellular domain; also called FcγRIIa H type; 2aH
T2 sequence: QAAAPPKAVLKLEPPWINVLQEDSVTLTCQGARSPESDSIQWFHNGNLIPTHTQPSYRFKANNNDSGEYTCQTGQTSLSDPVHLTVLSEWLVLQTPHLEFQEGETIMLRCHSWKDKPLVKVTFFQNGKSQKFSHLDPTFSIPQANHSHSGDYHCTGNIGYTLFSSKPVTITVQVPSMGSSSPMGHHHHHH

T3: FcγRIIa(R) (human, UniProt P12318 34-217)
T3 construct: extracellular domain; also called FcγRIIa R type; 2aR
T3 sequence: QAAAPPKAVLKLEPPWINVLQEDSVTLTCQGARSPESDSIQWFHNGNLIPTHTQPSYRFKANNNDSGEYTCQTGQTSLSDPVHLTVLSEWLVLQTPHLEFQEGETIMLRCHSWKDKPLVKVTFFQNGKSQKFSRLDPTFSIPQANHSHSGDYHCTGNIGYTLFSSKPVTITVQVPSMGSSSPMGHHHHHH

T4: FcγRIIa(R) extracellular domain, C-terminal His tag (human, UniProt P12318 34-217)
T4 construct: extracellular domain; also called 2aR
T4 sequence: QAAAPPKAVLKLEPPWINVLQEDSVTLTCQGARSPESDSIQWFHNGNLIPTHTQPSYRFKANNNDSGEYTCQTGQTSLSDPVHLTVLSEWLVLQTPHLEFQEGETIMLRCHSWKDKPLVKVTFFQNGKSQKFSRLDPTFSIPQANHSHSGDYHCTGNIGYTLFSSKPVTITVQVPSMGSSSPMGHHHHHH

T5: FcγRIIb extracellular domain, C-terminal His tag (human, UniProt P31994 43-217)
T5 construct: extracellular domain; also called 2b
T5 sequence: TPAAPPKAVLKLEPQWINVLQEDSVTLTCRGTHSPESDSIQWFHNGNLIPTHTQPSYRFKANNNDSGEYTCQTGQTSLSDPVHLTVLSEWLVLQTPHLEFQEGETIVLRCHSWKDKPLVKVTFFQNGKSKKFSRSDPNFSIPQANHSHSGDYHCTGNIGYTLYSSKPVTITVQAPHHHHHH

T6: FcγRIIa(H) extracellular domain, C-terminal His tag (human, UniProt P12318 34-217)
T6 construct: extracellular domain; also called 2aH
T6 sequence: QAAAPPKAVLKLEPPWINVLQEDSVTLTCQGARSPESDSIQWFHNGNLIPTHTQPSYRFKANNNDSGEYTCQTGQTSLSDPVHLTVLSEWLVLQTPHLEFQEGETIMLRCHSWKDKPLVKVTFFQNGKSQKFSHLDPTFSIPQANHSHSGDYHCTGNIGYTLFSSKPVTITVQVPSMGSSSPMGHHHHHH


Tests used:
FcγRIIb = target: T1, FcγRIIb; assay: SPR (Biacore), binding relative to GpH7-A5/GpH7-B3/GpL16-k0 x100;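 note: surface plasmon resonance at 25 °C, antibody captured on a sensor chip and soluble FcγR flowed over it in HBS-EP+ running buffer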
Description: (§1) The antibody of interest was analyzed for its interaction with FcγR using a BiaCore™ T100, BiaCore™ A100, or BiaCore™ 4000 surface plasmon resonance system (GE Healthcare Japan Corp.). The running buffer used was HBS-EP+ (GE Healthcare Japan Corp.). The assay temperature was set to 25° C. The sensor chips used were: a chip prepared by immobilizing antigenic peptides onto Series S Sensor Chip CM5 (GE Healthcare Japan Corp.) by the amine coupling method; a chip prepared by immobilizing antigenic peptides biotinylated in advance onto Series S Sensor Chip SA (certified) (GE Healthcare Japan Corp.) through their interaction; a chip prepared by immobilizing protein L (ACTIGEN, BioVision, Inc.) onto Series S Sensor Chip CM5 (GE Healthcare Japan Corp.); and a chip prepared by immobilizing protein A/G (Thermo Fisher Scientific K.K.) onto Series S Sensor Chip CM5 (GE Healthcare Japan Corp.). The antibody of interest was captured onto any of these chips and allowed to interact with FcγR diluted with a running buffer. The antibody captured on the chip was washed off through the reaction of 10 mM glycine-HCl (pH 1.5) to regenerate the chip, which was repetitively used.

FcγRIIa(H) = target: T2, FcγRIIa(H); assay: as above
Description: as §1

FcγRIIa(R) = target: T3, FcγRIIa(R); assay: as above
Description: as §1

FcγRIa = target: T7, FcγRIa (human, UniProt P12314 16-292); assay: as above
T7 construct: extracellular domain; also called 1a
T7 sequence (P12314 other isoform, or with tags, fused parts or gaps): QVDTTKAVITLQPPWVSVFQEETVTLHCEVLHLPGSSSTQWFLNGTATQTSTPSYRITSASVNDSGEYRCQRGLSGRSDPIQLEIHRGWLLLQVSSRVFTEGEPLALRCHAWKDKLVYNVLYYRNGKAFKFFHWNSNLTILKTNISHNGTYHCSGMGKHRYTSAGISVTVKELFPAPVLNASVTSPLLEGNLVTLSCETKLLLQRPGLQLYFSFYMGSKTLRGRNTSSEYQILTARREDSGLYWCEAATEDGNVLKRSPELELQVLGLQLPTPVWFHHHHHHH
Description: as §1

[1] = target: T4, FcγRIIa(R) extracellular domain, …; assay: SPR; He Ab vs HeCon Ab (GpH7-A5/GpH7-B3/GpL16-k0)=100;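 note: surface plasmon resonance at 25 °C with the test antibody captured on a sensor chip via antigenic peptide, protein L or protein A/G and FcγR flowed over as analyte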
Description: as §1

[2] = target: T8, FcγRIa extracellular domain, C-terminal His tag (human, UniProt P12314 16-292); assay: as above
T8 construct: extracellular domain; also called 1a
T8 sequence (P12314 other isoform, or with tags, fused parts or gaps): as above
Description: as §1

[3] = target: T9, FcγRIIIa extracellular domain, C-terminal His tag (human, UniProt P08637 17-208); assay: as above
T9 construct: extracellular domain; also called 3a
T9 sequence (P08637 other isoform, or with tags, fused parts or gaps): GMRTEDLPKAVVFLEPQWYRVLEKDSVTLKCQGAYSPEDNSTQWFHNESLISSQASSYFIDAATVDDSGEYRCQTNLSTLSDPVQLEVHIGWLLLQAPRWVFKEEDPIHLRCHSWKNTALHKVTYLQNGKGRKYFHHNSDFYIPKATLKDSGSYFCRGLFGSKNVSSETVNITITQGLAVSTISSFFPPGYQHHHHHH
Description: as §1

[4] = target: T5, FcγRIIb extracellular domain, …; assay: as above
Description: as §1

[5] = target: T6, FcγRIIa(H) extracellular domain, …; assay: as above
Description: as §1

Binder	He/Con 2b (FcγRIIb) [%]	He/Con 2aH (FcγRIIa(H)) [%]	He/Con 2aR (FcγRIIa(R)) [%]	He/Con 1a (FcγRIa) [%]	He/Con 2aR [1] [%]	He/Con 1a [2] [%]	He/Con 3a [3] [%]	He/Con 2b [4] [%]	He/Con 2aH [5] [%]
GpH7-A5/GpH7-B3 variant S267_02A/GpL16-k0 (antibody, human IgG1, kappa, heterodimerized IgG1, one H chain mutated; also called He Ab) heavy 1: not shown heavy 2: not shown light: DIVMTQSPLSLPVTPGEPASISCQASESLVHSNRNTYLHWYLQKPGQSPQLLIYKVSNRFSGVPDRFSGSGSGTDFTLKISRVEAEDVGVYYCSQNTHVPPTFGQGTKVEIERTVAAPSVFIFPPSDEQLKSGTASVVCLLNNFYPREAKVQWKVDNALQSGNSQESVTEQDSKDSTYSLSSTLTLSKADYEKHKVYACEVTHQGLSSPVTKSFNRGEC	256	121	167	105					
GpH7-A5/GpH7-B3 variant Q295_12R/GpL16-k0 (antibody, human IgG1, kappa, heterodimerized IgG1, one H chain mutated; also called He Ab; copies: 1 + 1 + 2) heavy 1: not shown heavy 2: not shown light: DIVMTQSPLSLPVTPGEPASISCQASESLVHSNRNTYLHWYLQKPGQSPQLLIYKVSNRFSGVPDRFSGSGSGTDFTLKISRVEAEDVGVYYCSQNTHVPPTFGQGTKVEIERTVAAPSVFIFPPSDEQLKSGTASVVCLLNNFYPREAKVQWKVDNALQSGNSQESVTEQDSKDSTYSLSSTLTLSKADYEKHKVYACEVTHQGLSSPVTKSFNRGEC					82.2	98.8	73.2	73.1	96.4
GpH7-A5/GpH7-B3 variant P271_01G/GpL16-k0 (antibody, human IgG1, kappa, heterodimerized IgG1, one H chain mutated; also called He Ab; copies: 1 + 1 + 2) heavy 1: not shown heavy 2: not shown light: DIVMTQSPLSLPVTPGEPASISCQASESLVHSNRNTYLHWYLQKPGQSPQLLIYKVSNRFSGVPDRFSGSGSGTDFTLKISRVEAEDVGVYYCSQNTHVPPTFGQGTKVEIERTVAAPSVFIFPPSDEQLKSGTASVVCLLNNFYPREAKVQWKVDNALQSGNSQESVTEQDSKDSTYSLSSTLTLSKADYEKHKVYACEVTHQGLSSPVTKSFNRGEC					143	103	119	217	123
GpH7-A5/GpH7-B3 variant S267_10E/GpL16-k0 (antibody, human IgG1, kappa, heterodimerized IgG1, one H chain mutated; also called He Ab) heavy 1: not shown heavy 2: not shown light: DIVMTQSPLSLPVTPGEPASISCQASESLVHSNRNTYLHWYLQKPGQSPQLLIYKVSNRFSGVPDRFSGSGSGTDFTLKISRVEAEDVGVYYCSQNTHVPPTFGQGTKVEIERTVAAPSVFIFPPSDEQLKSGTASVVCLLNNFYPREAKVQWKVDNALQSGNSQESVTEQDSKDSTYSLSSTLTLSKADYEKHKVYACEVTHQGLSSPVTKSFNRGEC	398	103	188	102					
GpH7-A5/GpH7-B3 variant P271_03V/GpL16-k0 (antibody, human IgG1, kappa, heterodimerized IgG1, one H chain mutated; also called He Ab; copies: 1 + 1 + 2) heavy 1: not shown heavy 2: not shown light: DIVMTQSPLSLPVTPGEPASISCQASESLVHSNRNTYLHWYLQKPGQSPQLLIYKVSNRFSGVPDRFSGSGSGTDFTLKISRVEAEDVGVYYCSQNTHVPPTFGQGTKVEIERTVAAPSVFIFPPSDEQLKSGTASVVCLLNNFYPREAKVQWKVDNALQSGNSQESVTEQDSKDSTYSLSSTLTLSKADYEKHKVYACEVTHQGLSSPVTKSFNRGEC					85.8	101	73.5	83.8	85.4
GpH7-A5/GpH7-B3 variant P271_07I/GpL16-k0 (antibody, human IgG1, kappa, heterodimerized IgG1, one H chain mutated; also called He Ab; copies: 1 + 1 + 2) heavy 1: not shown heavy 2: not shown light: DIVMTQSPLSLPVTPGEPASISCQASESLVHSNRNTYLHWYLQKPGQSPQLLIYKVSNRFSGVPDRFSGSGSGTDFTLKISRVEAEDVGVYYCSQNTHVPPTFGQGTKVEIERTVAAPSVFIFPPSDEQLKSGTASVVCLLNNFYPREAKVQWKVDNALQSGNSQESVTEQDSKDSTYSLSSTLTLSKADYEKHKVYACEVTHQGLSSPVTKSFNRGEC					88	101	80.2	86.1	94.1
GpH7-A5/GpH7-B3 variant P271_02A/GpL16-k0 (antibody, human IgG1, kappa, heterodimerized IgG1, one H chain mutated; also called He Ab; copies: 1 + 1 + 2) heavy 1: not shown heavy 2: not shown light: DIVMTQSPLSLPVTPGEPASISCQASESLVHSNRNTYLHWYLQKPGQSPQLLIYKVSNRFSGVPDRFSGSGSGTDFTLKISRVEAEDVGVYYCSQNTHVPPTFGQGTKVEIERTVAAPSVFIFPPSDEQLKSGTASVVCLLNNFYPREAKVQWKVDNALQSGNSQESVTEQDSKDSTYSLSSTLTLSKADYEKHKVYACEVTHQGLSSPVTKSFNRGEC					93.9	102	83.7	98.7	88.4
GpH7-A5/GpH7-B3 variant P271_06M/GpL16-k0 (antibody, human IgG1, kappa, heterodimerized IgG1, one H chain mutated; also called He Ab; copies: 1 + 1 + 2) heavy 1: not shown heavy 2: not shown light: DIVMTQSPLSLPVTPGEPASISCQASESLVHSNRNTYLHWYLQKPGQSPQLLIYKVSNRFSGVPDRFSGSGSGTDFTLKISRVEAEDVGVYYCSQNTHVPPTFGQGTKVEIERTVAAPSVFIFPPSDEQLKSGTASVVCLLNNFYPREAKVQWKVDNALQSGNSQESVTEQDSKDSTYSLSSTLTLSKADYEKHKVYACEVTHQGLSSPVTKSFNRGEC					87.3	101	74	87	87.7
GpH7-A5/GpH7-B3 variant S267_09D/GpL16-k0 (antibody, human IgG1, kappa, heterodimerized IgG1, one H chain mutated; also called He Ab) heavy 1: not shown heavy 2: not shown light: DIVMTQSPLSLPVTPGEPASISCQASESLVHSNRNTYLHWYLQKPGQSPQLLIYKVSNRFSGVPDRFSGSGSGTDFTLKISRVEAEDVGVYYCSQNTHVPPTFGQGTKVEIERTVAAPSVFIFPPSDEQLKSGTASVVCLLNNFYPREAKVQWKVDNALQSGNSQESVTEQDSKDSTYSLSSTLTLSKADYEKHKVYACEVTHQGLSSPVTKSFNRGEC	326	107	186	106					

The remaining lines, values ahead:

He/Con 2b (FcγRIIb) [%]	He/Con 2aH (FcγRIIa(H)) [%]	He/Con 2aR (FcγRIIa(R)) [%]	He/Con 1a (FcγRIa) [%]	He/Con 2aR [1] [%]	He/Con 1a [2] [%]	He/Con 3a [3] [%]	He/Con 2b [4] [%]	He/Con 2aH [5] [%]	Binder
85.1	69.7	88.8	93.8						GpH7-A5/GpH7-B3 variant V266_02A/GpL16-k0 (antibody, human IgG1, kappa, heterodimerized IgG1, one H chain mutated; also called He Ab) heavy 1: not shown heavy 2: not shown light: DIVMTQSPLSLPVTPGEPASISCQASESLVHSNRNTYLHWYLQKPGQSPQLLIYKVSNRFSGVPDRFSGSGSGTDFTLKISRVEAEDVGVYYCSQNTHVPPTFGQGTKVEIERTVAAPSVFIFPPSDEQLKSGTASVVCLLNNFYPREAKVQWKVDNALQSGNSQESVTEQDSKDSTYSLSSTLTLSKADYEKHKVYACEVTHQGLSSPVTKSFNRGEC
264	84.8	161	96.5						GpH7-A5/GpH7-B3 variant V266_06M/GpL16-k0 (antibody, human IgG1, kappa, heterodimerized IgG1, one H chain mutated; also called He Ab) heavy 1: not shown heavy 2: not shown light: DIVMTQSPLSLPVTPGEPASISCQASESLVHSNRNTYLHWYLQKPGQSPQLLIYKVSNRFSGVPDRFSGSGSGTDFTLKISRVEAEDVGVYYCSQNTHVPPTFGQGTKVEIERTVAAPSVFIFPPSDEQLKSGTASVVCLLNNFYPREAKVQWKVDNALQSGNSQESVTEQDSKDSTYSLSSTLTLSKADYEKHKVYACEVTHQGLSSPVTKSFNRGEC
248	106	152	94.9						GpH7-A5/GpH7-B3 variant V266_08L/GpL16-k0 (antibody, human IgG1, kappa, heterodimerized IgG1, one H chain mutated; also called He Ab) heavy 1: not shown heavy 2: not shown light: DIVMTQSPLSLPVTPGEPASISCQASESLVHSNRNTYLHWYLQKPGQSPQLLIYKVSNRFSGVPDRFSGSGSGTDFTLKISRVEAEDVGVYYCSQNTHVPPTFGQGTKVEIERTVAAPSVFIFPPSDEQLKSGTASVVCLLNNFYPREAKVQWKVDNALQSGNSQESVTEQDSKDSTYSLSSTLTLSKADYEKHKVYACEVTHQGLSSPVTKSFNRGEC
160	107	129	96.1						GpH7-A5/GpH7-B3 variant V266_07I/GpL16-k0 (antibody, human IgG1, kappa, heterodimerized IgG1, one H chain mutated; also called He Ab) heavy 1: not shown heavy 2: not shown light: DIVMTQSPLSLPVTPGEPASISCQASESLVHSNRNTYLHWYLQKPGQSPQLLIYKVSNRFSGVPDRFSGSGSGTDFTLKISRVEAEDVGVYYCSQNTHVPPTFGQGTKVEIERTVAAPSVFIFPPSDEQLKSGTASVVCLLNNFYPREAKVQWKVDNALQSGNSQESVTEQDSKDSTYSLSSTLTLSKADYEKHKVYACEVTHQGLSSPVTKSFNRGEC
228	61.9	145	99.2						GpH7-A5/GpH7-B3 variant S267_19Q/GpL16-k0 (antibody, human IgG1, kappa, heterodimerized IgG1, one H chain mutated; also called He Ab) heavy 1: not shown heavy 2: not shown light: DIVMTQSPLSLPVTPGEPASISCQASESLVHSNRNTYLHWYLQKPGQSPQLLIYKVSNRFSGVPDRFSGSGSGTDFTLKISRVEAEDVGVYYCSQNTHVPPTFGQGTKVEIERTVAAPSVFIFPPSDEQLKSGTASVVCLLNNFYPREAKVQWKVDNALQSGNSQESVTEQDSKDSTYSLSSTLTLSKADYEKHKVYACEVTHQGLSSPVTKSFNRGEC

— patent US20260167699A1 (Chugai, published 2026)
